The results in this text go back to patent publication US20210380702A1 (Regeneron, published 2021).

Broadly, the Kd is the equilibrium constant for the complex coming apart. In general, koff refers to the first-order rate constant of dissociation. Broadly, the kon is the rate constant with which the complex forms.

Assay [1] addresses T1, recombinant cynomolgus monkey PD-L1 with a C-terminal myc-myc-hexahistidine tag (cynomolgus monkey (Macaca fascicularis)).
T1 construct: also called MfPD-L1-MMH; MfPD-L1-MMH Monomer
As to the kind of experiment: SPR (Biacore), mAb captured, 37C. The method, then: (§1) Binding association and dissociation rate constants (kₐ and kd, respectively), equilibrium dissociation constants and dissociation half-lives (KD and t_{1/2}, respectively) of antigen binding to purified anti-PD-L1 monoclonal antibodies were determined using a real-time surface plasmon resonance biosensor assay on a Biacore 4000 instrument. The Biacore sensor surface was either derivatized with polyclonal rabbit anti-mouse antibody (GE, #BR-1008-38) or with monoclonal mouse anti-human Fc antibody (GE, #BR-1008-39) to capture approximately 200-300 RUs of anti-PD-L1 monoclonal antibodies, expressed with either a mouse Fc or with human Fc, respectively. […] Different concentrations of PD-L1 reagents were injected over the anti-PD-L1 monoclonal antibody captured surface at a flow rate of 30 μL/min. The binding of the PD-L1 reagents to the captured monoclonal antibodies was monitored for 3 to 4 minutes while the dissociation of antibody bound PD-L1 reagents was monitored for 10 minutes in HBST running buffer (0.01 M HEPES pH 7.4, 0.15 M NaCl, 3 mM EDTA, 0.05% v/v Surfactant tween-20). Experiments were performed at either 25° C. or 37° C. Kinetic association (kₐ) and dissociation (kd) rate constants were determined by processing and fitting the data to a 1:1 binding model using Scrubber 2.0c curve fitting software. Binding dissociation equilibrium constants (KD) and dissociative half-lives (t_{1/2}) were then calculated from the kinetic rate constants as: KD (M)=kd/kₐ and t_{1/2} (min)=[In2/(60*kd)].

For assay [2], the target named is T2, recombinant human PD-L1 (amino acids 19-239 of NP_054862.1) with a C-terminal myc-myc-hexahistidine tag (human).
T2 construct: also called hPD-L1-MMH; hPD-L1-MMH Monomer
T2 sequence (chain, as listed by the source limits assumed): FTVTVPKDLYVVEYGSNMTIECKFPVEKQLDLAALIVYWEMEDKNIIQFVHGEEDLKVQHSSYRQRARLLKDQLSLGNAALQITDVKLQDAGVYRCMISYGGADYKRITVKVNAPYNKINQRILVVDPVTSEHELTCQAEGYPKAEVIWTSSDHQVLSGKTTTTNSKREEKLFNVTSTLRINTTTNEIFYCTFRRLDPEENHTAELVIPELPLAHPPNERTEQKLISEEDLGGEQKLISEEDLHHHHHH
The assay is described as follows: SPR (Biacore), mAb captured, 37C. Here is the method: as §1
(In general: Surface plasmon resonance follows binding to a sensor surface in real time, without labels.)

The target in assay [3] is T3, Human PD-L1 Dimer (human, UniProt Q9NZQ7 19-239).
T3 construct: also called hPD-L1 dimer; hPD-L1-hFc
T3 sequence (Q9NZQ7 19-239): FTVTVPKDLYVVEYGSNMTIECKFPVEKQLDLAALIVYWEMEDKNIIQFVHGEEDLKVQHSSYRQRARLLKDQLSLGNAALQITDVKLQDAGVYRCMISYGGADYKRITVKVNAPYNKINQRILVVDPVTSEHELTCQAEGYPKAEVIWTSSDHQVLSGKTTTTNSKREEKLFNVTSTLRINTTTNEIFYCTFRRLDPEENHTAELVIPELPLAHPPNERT
As to the kind of experiment: SPR (Biacore), mAb captured, 37C. The method, then: as §1

In assay [4] the target is T1, recombinant cynomolgus monkey PD-L1 …. As to the kind of experiment: SPR (Biacore), mAb captured, 25C. The method, then: as §1
Assay [5] has as its target T4, recombinant cynomolgus monkey PD-L1 with a C-terminal mouse IgG2a Fc tag (cynomolgus monkey (Macaca fascicularis)).
T4 construct: also called MfPD-L1-mFc; monkey PD-L1-mFc
As to the kind of experiment: SPR (Biacore), mAb captured, 25C. Here is the method: as §1

Assay [6] addresses T3, Human PD-L1 Dimer. As to the kind of experiment: SPR (Biacore), mAb captured, 25C. Here is the method:
as §1

T4 sequence (chain, as listed by the source limits assumed): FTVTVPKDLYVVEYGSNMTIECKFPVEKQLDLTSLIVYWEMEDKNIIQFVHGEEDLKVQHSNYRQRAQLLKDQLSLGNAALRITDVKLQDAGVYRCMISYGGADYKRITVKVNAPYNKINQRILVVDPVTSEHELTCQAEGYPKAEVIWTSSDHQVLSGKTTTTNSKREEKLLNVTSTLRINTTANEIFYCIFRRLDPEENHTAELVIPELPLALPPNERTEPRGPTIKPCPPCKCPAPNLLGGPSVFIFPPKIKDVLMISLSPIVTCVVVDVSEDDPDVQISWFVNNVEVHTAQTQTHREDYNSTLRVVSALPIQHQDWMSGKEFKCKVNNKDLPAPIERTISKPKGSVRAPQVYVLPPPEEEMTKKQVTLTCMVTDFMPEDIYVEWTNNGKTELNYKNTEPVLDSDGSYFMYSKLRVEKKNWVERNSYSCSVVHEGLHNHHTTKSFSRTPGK
T1 sequence (chain, as listed by the source limits assumed): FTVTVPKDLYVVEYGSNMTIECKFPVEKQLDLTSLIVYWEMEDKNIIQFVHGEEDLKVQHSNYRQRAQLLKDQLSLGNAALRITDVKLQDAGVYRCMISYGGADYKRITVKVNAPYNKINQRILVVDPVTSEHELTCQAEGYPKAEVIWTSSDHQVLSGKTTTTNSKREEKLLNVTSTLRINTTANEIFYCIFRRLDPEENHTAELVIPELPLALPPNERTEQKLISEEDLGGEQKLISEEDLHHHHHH

B1: H1H9354P2 (antibody, human IgG1, V domains shown)
VH: EVQLVESGGGLVQPGGSLRLSCEASGFTVGVNHMNWVRQAPGKGLEWVSVIFSSGRTFYGDYVKGRLTIFRQTSQNTVYLQMNSLRSEDTAIYYCARGIGGLDIWGRGTMVTVSS
VL: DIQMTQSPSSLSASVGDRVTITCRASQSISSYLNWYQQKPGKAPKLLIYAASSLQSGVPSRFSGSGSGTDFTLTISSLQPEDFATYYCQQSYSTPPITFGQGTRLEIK
With B1, the Kd was found to be 9.82 nM in assay [1]; 15.4 nM in assay [2]; 0.317 nM in assay [3]; 6.64 nM in assay [4]; 0.447 nM in assay [5]; 0.689 nM in assay [6]. Besides, the koff in assay [1] is 0.000844 s⁻¹; in assay [2], 0.00114 s⁻¹; in assay [3], 0.000145 s⁻¹; in assay [4], 0.000305 s⁻¹; in assay [5] it was 9.14e-05 s⁻¹; in assay [6] it was 0.000116 s⁻¹. Also, the kon worked out at 85900 M⁻¹ s⁻¹ in assay [1]; 73900 M⁻¹ s⁻¹ in assay [2]; 456000 M⁻¹ s⁻¹ in assay [3]; 46000 M⁻¹ s⁻¹ in assay [4]; 205000 M⁻¹ s⁻¹ in assay [5]; 168000 M⁻¹ s⁻¹ in assay [6]. The t1/2 in assay [1] was determined as 14 min; in assay [2] it was 10 min; in assay [3], 80 min; in assay [4], 38 min; in assay [5], 126 min; in assay [6] it was 100 min.

B2: H1H9336P (antibody, human IgG1, V domains shown)
VH: EVQLVESGGGLVQPGRSLRLSCAASGFTFDDFAMHWVRQAPGKGLEWVSGISWTGGNMDYANSVKGRFTISREDAKNSLYLQMNSLRAADTALYYCVKDIRGIVATGGAFDIWGRGTMVTVSS
VL: DIQMTQSPSSLSASVGDRVTISCRASQTISTYLNWFQQKPGKAPKLLIYVVSSLQSGVPSRFSGSGSGTDFTLTISSLQPEDFATYYCQQSYSTPFTFGPGTKVDIK
Turning to B2, the Kd in assay [1] worked out at 1.38 nM; in assay [2], 0.733 nM; in assay [3] it was 0.0302 nM; in assay [4], 0.876 nM; in assay [5] it was 0.0622 nM; in assay [6], 0.0786 nM. Moreover, the koff amounted to 0.00125 s⁻¹ in assay [1]; 0.000788 s⁻¹ in assay [2]; 8.31e-05 s⁻¹ in assay [3]; 0.000594 s⁻¹ in assay [4]; 6.16e-05 s⁻¹ in assay [5]; 0.000109 s⁻¹ in assay [6]. Further, the kon in assay [1] worked out at 909000 M⁻¹ s⁻¹; in assay [2], 1.07e+06 M⁻¹ s⁻¹; in assay [3], 2.75e+06 M⁻¹ s⁻¹; in assay [4] it was 679000 M⁻¹ s⁻¹; in assay [5] it was 990000 M⁻¹ s⁻¹; in assay [6] it was 1.38e+06 M⁻¹ s⁻¹. In addition, the t1/2 turned out to be 9.2 min in assay [1]; 15 min in assay [2]; 139 min in assay [3]; 19 min in assay [4]; 188 min in assay [5]; 106 min in assay [6].

B3: H1H9345P2 (antibody, human IgG1, V domains shown)
VH: EVQLVESGGGLVQPGGSLRLSCAASGFTISTNYMNWVRQAPGKGLEWVAVIYSSGSTYYIDSVKGRFTISRLTSKNTVYLQMSSLNSEDTAVYYCARGIRGFDIWGQGTMVTVSS
VL: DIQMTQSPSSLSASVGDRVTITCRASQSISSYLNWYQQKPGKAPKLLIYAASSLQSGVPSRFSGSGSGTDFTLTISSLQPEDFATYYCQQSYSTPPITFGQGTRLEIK
With B3, the Kd in assay [1] came out at 121 nM; in assay [2], 197 nM; in assay [3] it was 0.297 nM; in assay [4], 77.3 nM; in assay [5], 0.512 nM; in assay [6] it was 0.474 nM. Further, the koff in assay [1] is 0.0197 s⁻¹; in assay [2] it was 0.034 s⁻¹; in assay [3], 0.000203 s⁻¹; in assay [4] it was 0.0085 s⁻¹; in assay [5] it was 0.000151 s⁻¹; in assay [6], 0.000237 s⁻¹. Also, the kon in assay [1] turned out to be 164000 M⁻¹ s⁻¹; in assay [2], 172000 M⁻¹ s⁻¹; in assay [3], 682000 M⁻¹ s⁻¹; in assay [4], 110000 M⁻¹ s⁻¹; in assay [5], 296000 M⁻¹ s⁻¹; in assay [6], 500000 M⁻¹ s⁻¹. Also, the t1/2 in assay [1] is 0.6 min; in assay [2] it was 0.3 min; in assay [3], 57 min; in assay [4], 1.4 min; in assay [5] it was 76 min; in assay [6], 49 min.
